In publication PMC6058054, “Mining the Genome of Streptomyces leeuwenhoekii: Two New Type I Baeyer–Villiger Monooxygenases From Atacama Desert” (Frontiers in Microbiology, 2018):

What was measured:
[1] = target: T1, Sle_62070 (Streptomyces leeuwenhoekii, UniProt A0A0F7W6X7); assay: UV-vis spectrum of purified flavoprotein; FAD quantified after SDS unfolding; format: binding; conditions: co-purified FAD
T1 construct: full-length, fused to N-terminal His-tagged phosphite dehydrogenase (PTDH) in pCRE2, fusion kept; expressed in E. coli NEB 10-beta; FAD flavoprotein

[2] = target: T2, Sle_13190 (Streptomyces leeuwenhoekii, UniProt A0A0F7VUW7); assay: as above; format: binding; conditions: co-purified FAD
T2 construct: full-length, fused to N-terminal His-tagged phosphite dehydrogenase (PTDH) in pCRE2, fusion kept; expressed in E. coli NEB 10-beta; FAD flavoprotein

[3] = substrate: O=C1CC2C=CCC12; assay: purified protein; format: biochemical, Streptomyces leeuwenhoekii; conditions: 150 uM NADPH, 10 uM FAD, 50 mM Tris-HCl pH 8.0, 10% glycerol, 100 mM NaCl, 2.5% 1,4-dioxane, 25 C
[4] = substrate: O=C1CCC(c2ccccc2)CC1; assay: purified protein; format: biochemical, Streptomyces leeuwenhoekii; conditions: 150 uM NADPH, 10 uM FAD, 50 mM Tris-HCl pH 8.0, 10% glycerol, 100 mM NaCl, 2.5% 1,4-dioxane, 25 C
[5] = substrate: O=C1CCCCC1c1ccccc1; assay: purified protein; format: biochemical, Streptomyces leeuwenhoekii; conditions: 150 uM NADPH, 10 uM FAD, 50 mM Tris-HCl pH 8.0, 10% glycerol, 100 mM NaCl, 2.5% 1,4-dioxane, 25 C
[6] = substrate: CC(=O)Cc1ccccc1; assay: purified protein; conditions: 150 uM NADPH, 10 uM FAD, 50 mM Tris-HCl pH 8.0, 10% glycerol, 100 mM NaCl, 2.5% 1,4-dioxane, 25 C

Molecule: Cc1cc2nc3c(=O)[nH]c(=O)nc-3n(C[C@H](O)[C@H](O)[C@H](O)COP(=O)(O)OP(=O)(O)OC[C@H]3O[C@@H](n4cnc5c(N)ncnc54)[C@H](O)[C@@H]3O)c2cc1C [FAD]
- UV-vis spectrum of purified flavoprotein; FAD quantified after SDS unfolding [1]: a clear yellow color was indicative of proper folding and FAD binding
- UV-vis spectrum of purified flavoprotein; FAD quantified after SDS unfolding [2]: a clear yellow color was indicative of proper folding and FAD binding

B1: Sle_62070 (Streptomyces leeuwenhoekii) (protein)
chain: MTQGQTLSPEELAGLRERYRLERERRVRPDGTRQYLAADAEFGYYAEDPYAGEPPEREPLRDRVDVAVVGGGFGGILAGARLRRRGVRRVRVIEKGGDFGGTWYWNRYPGIHCDIESHVYLPLLDETGYVPEWKYAPGEEIRRHAVRIAEKFDLYADAQFSTAVTSLTWDEETRAWVVATDRGDEFRATYVITATGTLSELKLPGIPGIETFEGHTFHTSRWDYAYTGGTPDGGLTGLADKRVGVVGTGATGIQVIPKLAEDAGHLYVFQRTPSSVDVRANRRTTPQDVGADRDGWARERRDNFLRIVSGETAEEDLVADQWTASAGLLEKLVPSFRRQGDRTAFEAAYEVADAAKMNEIRARVERIVTDRDTAEKLKPWYRYACKRPTFSDTYLQAFNRDNVTLVDTADTHGIERMTERGVVVGGTEYALDCLIFATGFSVGVSGVHSGRLPVRGRGGVQLLDAWRKEGPRTLHGFTSNGFPNLIQMGTVQNASSVNYTHVLDEQAVHAAALVAAAEAKGAVIEPSREAEDAWIAVLAEDAPDHEWFHAECTPGYYNAEGRGRAKGPTAYPHGASAFHELLRRWREESMDGILRAGTPVRGPGGSTVS
notes: full-length, fused to N-terminal His-tagged phosphite dehydrogenase (PTDH) in pCRE2, fusion kept; expressed in E. coli NEB 10-beta; FAD flavoprotein
- Km [3]: 200 ± 10 µM
- kcat [3]: 4 ± 0.06 s⁻¹
- kcat/Km [3]: 20000 M⁻¹ s⁻¹
- kcat [4]: > 4 s⁻¹
- kcat/Km [4]: 1300 M⁻¹ s⁻¹
- kcat [5]: > 4 s⁻¹
- kcat/Km [5]: 1300 M⁻¹ s⁻¹
- Km [6]: 3000 ± 300 µM
- kcat [6]: 4.1 s⁻¹
- kcat/Km [6]: 1300 M⁻¹ s⁻¹
